Earlier results, collected in PMC5837126.

Target: IL-2Rβγc (intermediate-affinity IL-2R) (Homo sapiens) (UniProt P14784)
Sequence of UniProt P14784 (P14784 27-240, chain 1 of 2): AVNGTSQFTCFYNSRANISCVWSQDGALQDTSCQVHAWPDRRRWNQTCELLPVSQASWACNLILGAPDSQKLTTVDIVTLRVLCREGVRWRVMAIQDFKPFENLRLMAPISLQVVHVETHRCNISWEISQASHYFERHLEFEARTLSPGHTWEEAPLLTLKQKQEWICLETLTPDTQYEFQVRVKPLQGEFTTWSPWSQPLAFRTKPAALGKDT
Sequence of UniProt P14784 (P31785 23-262, chain 2 of 2, further chain): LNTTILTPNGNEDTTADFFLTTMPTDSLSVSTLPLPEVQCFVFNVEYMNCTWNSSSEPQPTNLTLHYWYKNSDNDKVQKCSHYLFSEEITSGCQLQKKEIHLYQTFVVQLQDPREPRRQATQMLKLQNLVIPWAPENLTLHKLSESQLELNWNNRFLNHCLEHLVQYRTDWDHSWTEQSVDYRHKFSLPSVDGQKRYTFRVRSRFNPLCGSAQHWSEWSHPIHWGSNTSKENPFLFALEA

## IL-2 (from UniProt P60568)
  Kd: 1 nM
